B1: DD-N-CAP2, human CAP2 helical folded domain with the coiled coil (a.a. 1-29) replaced by the dimerization domain 2L4HC2_23 (other)
chain: GTRTEIIRELERSLREQEELAKRLKELLRELERLQREGSSDEDVRELLREIKELVEEIEKLAREQKYLVEELKRQDGNCGEVNGVIAGVAPSVEAFDKLMDSMVAEFLKNSRILAGDVETHAEMVHSAFQAQRAFLLMASQYQQPHENDVAALLKPISEKIQEIQTFRERNRGSNMFNHLSAVSESIPALGWIAVSPKPGPYVKEMNDAATFYTNRVLKDYKHSDLRHVDWVKSYLNIWSELQAYIKEHHTTGLTWSKTGPVASTVS
B2: TD-N-CAP2, human CAP2 helical folded domain with the coiled coil (a.a. 1-29) replaced by the trimerization domain 2L6HC3_6 (other)
chain: GTKYKIKETLKRLEDSLRELRRILEELKEMLERLEKNPDKDVIVEVLKVIVKAIEASVENQRISAENQKALAESDGNCGEVNGVIAGVAPSVEAFDKLMDSMVAEFLKNSRILAGDVETHAEMVHSAFQAQRAFLLMASQYQQPHENDVAALLKPISEKIQEIQTFRERNRGSNMFNHLSAVSESIPALGWIAVSPKPGPYVKEMNDAATFYTNRVLKDYKHSDLRHVDWVKSYLNIWSELQAYIKEHHTTGLTWSKTGPVASTVS
B3: ΔCC-N-CAP2, helical folded domain of human CAP2 with the coiled coil deleted (a.a. 30-220) (domain or fragment)
chain: GNCGEVNGVIAGVAPSVEAFDKLMDSMVAEFLKNSRILAGDVETHAEMVHSAFQAQRAFLLMASQYQQPHENDVAALLKPISEKIQEIQTFRERNRGSNMFNHLSAVSESIPALGWIAVSPKPGPYVKEMNDAATFYTNRVLKDYKHSDLRHVDWVKSYLNIWSELQAYIKEHHTTGLTWSKTGPVASTVS
B4: DD-N-CAP1, human CAP1 helical folded domain with the coiled coil (a.a. 1-29) replaced by the dimerization domain 2L4HC2_23 (other)
chain: GTRTEIIRELERSLREQEELAKRLKELLRELERLQREGSSDEDVRELLREIKELVEEIEKLAREQKYLVEELKRQDGYADSPSKAGAAPYVQAFDSLLAGPVAEYLKISKEIGGDVQKHAEMVHTGLKLERALLVTASQCQQPAENKLSDLLAPISEQIKEVITFREKNRGSKLFNHLSAVSESIQALGWVAMAPKPGPYVKEMNDAAMFYTNRVLKEYKDVDKKHVDWVKAYLSIWTELQAYIKEFHTTGLAWSKTGPVAKELSGL
B5: ΔCC-N-CAP1, helical folded domain of human CAP1 with the coiled coil (a.a. 1-29) deleted (domain or fragment)
chain: GYADSPSKAGAAPYVQAFDSLLAGPVAEYLKISKEIGGDVQKHAEMVHTGLKLERALLVTASQCQQPAENKLSDLLAPISEQIKEVITFREKNRGSKLFNHLSAVSESIQALGWVAMAPKPGPYVKEMNDAAMFYTNRVLKEYKDVDKKHVDWVKAYLSIWTELQAYIKEFHTTGLAWSKTGPVAKELSGL
B6: N-CAP1, N-terminal fragment of human cyclase-associated protein 1 (original coiled coil and helical folded domain) (domain or fragment)
chain: MADMQNLVERLERAVGRLEAVSHTSDMHRGYADSPSKAGAAPYVQAFDSLLAGPVAEYLKISKEIGGDVQKHAEMVHTGLKLERALLVTASQCQQPAENKLSDLLAPISEQIKEVITFREKNRGSKLFNHLSAVSESIQALGWVAMAPKPGPYVKEMNDAAMFYTNRVLKEYKDVDKKHVDWVKAYLSIWTELQAYIKEFHTTGLAWSKTGPVAKELSGL
B7: TD-N-CAP1, human CAP1 helical folded domain with the coiled coil (a.a. 1-29) replaced by the trimerization domain 2L6HC3_6 (other)
chain: GTKYKIKETLKRLEDSLRELRRILEELKEMLERLEKNPDKDVIVEVLKVIVKAIEASVENQRISAENQKALAESDGYADSPSKAGAAPYVQAFDSLLAGPVAEYLKISKEIGGDVQKHAEMVHTGLKLERALLVTASQCQQPAENKLSDLLAPISEQIKEVITFREKNRGSKLFNHLSAVSESIQALGWVAMAPKPGPYVKEMNDAAMFYTNRVLKEYKDVDKKHVDWVKAYLSIWTELQAYIKEFHTTGLAWSKTGPVAKELSGL

These binders were tested against T1, F-actin (skeletal muscle actin, polymerised) ( (rabbit or chicken skeletal …, UniProt P68135 1-377)).

Compared with B1, B2 is 10-fold lower in Kd: 7.11 µM for the first, 0.68 µM for the second.

B3 showed a Kd of 21.9 µM.

Biological target: T1, F-actin (skeletal muscle actin, …)
Remark: another data set of the same source

Going from B4 to B5, the Kd rises from 3.42 µM to 5.69 µM (1.7-fold). The first binds more tightly here.

First: B6
Second: B7
The Kd of the first is 3.3-fold lower: 0.91 µM for the first, 2.97 µM for the second. The first binds more tightly here.
